Data from publication PMC3409459, “Absorption, distribution, metabolism and excretion of peginesatide, a novel erythropoiesis-stimulating agent, in rats” (Xenobiotica; the Fate of Foreign Compounds in Biological …, 2011).

Experiment: Tissue distribution of radioactivity by LSC following combustion, albino rats
Type: in vivo, male Sprague-Dawley (albino) rats
Settings: for Concentration of the radioactivity, Pituitary / Concentration of the radioactivity, Plasma / Concentration of the radioactivity, Skeletal muscle / Concentration of the radioactivity, Skin / Concentration of the radioactivity, Spinal cord / Concentration of the radioactivity, Spleen / Concentration of the radioactivity, Stomach / Concentration of the radioactivity, Submandibular lymph nodes / Concentration of the radioactivity, Testes / Concentration of the radioactivity, Thymus / Concentration of the radioactivity, Thyroid gland / Concentration of the radioactivity, Urinary bladder / Concentration of the radioactivity, Adrenals / Concentration of the radioactivity, Blood / Concentration of the radioactivity, Bone (femur) / Concentration of the radioactivity, Bone marrow / Concentration of the radioactivity, Brain / Concentration of the radioactivity, Eyes / Concentration of the radioactivity, Fat / Concentration of the radioactivity, Harderian glands / Concentration of the radioactivity, Heart / Concentration of the radioactivity, Intestine / Concentration of the radioactivity, Kidneys / Concentration of the radioactivity, Liver / Concentration of the radioactivity, Lungs / Concentration of the radioactivity, Pancreas: mean ± SD, n=3; for tissue to plasma ratios: single IV 5 mg·kg^−1
Protocol: Total captured radioactivity was subsequently measured via LSC.
Male Sprague-Dawley (albino) rats (n = 21; three per time point) were administered a single IV dose of 5 mg·kg^−1 [^14C]-peginesatide (27.5 μCi/kg) and tissue concentrations of radioactivity determined at 0.25, 6, and 24 h, and 7,14,30 and 60 days following dosing. Similarly, male Long Evans (pigmented) rats (n = 21; three per time point) were administered a single IV dose of 5 mg-kg^−1 [^14C]-peginesatide and plasma, skin, and eye concentrations of radioactivity were measured at the various time points through 60 days after dosing. At each time point, blood was collected, the animals sacrificed, and tissues excised. Tissues collected from the Sprague-Dawley rats included blood, plasma, adrenals, bone marrow, brain, eyes, fat, femur, Harderian glands, heart, hypophysis, intestine, kidneys, lungs, liver, pancreas, skeletal muscle, skin, spinal cord, spleen, stomach, submaxillary glands, testes, thymus, thyroid gland, and urinary bladder. Plasma, eyes, non-pigmented skin, and pigmented skin were collected from Long Evans rats. All tissue samples were measured for radioactivity by LSC following combustion. The liver and intestine were first homogenized in distilled water (20% w/v) prior to analysis. The concentration of radioactivity in the blood, plasma, and tissues was calculated and expressed as ug equiv·g^-1 or mLbased on the LSC counts and the specific activity of the dosing solution.

[1] = 60 Days after single IV 5 mg·kg^−1, LSC
[2] = 0.25 h after single IV 5 mg·kg^−1, LSC
[3] = 6 h after single IV 5 mg·kg^−1, LSC
[4] = 24 h after single IV 5 mg·kg^−1, LSC

Peginesatide
Concentration of the radioactivity, Pituitary [1]: 4.32 ± 0.289 μg equiv·g^−1 or mL | Concentration of the radioactivity, Plasma [1]: 0.232 ± 0.042 μg equiv·g^−1 or mL | Concentration of the radioactivity, Skeletal muscle [1]: 0.085 ± 0.021 μg equiv·g^−1 or mL | Concentration of the radioactivity, Skin [1]: 0.394 ± 0.080 μg equiv·g^−1 or mL | Concentration of the radioactivity, Spinal cord [1]: 0.036 ± 0.018 μg equiv·g^−1 or mL | Concentration of the radioactivity, Spleen [1]: 3.40 ± 0.480 μg equiv·g^−1 or mL | Concentration of the radioactivity, Stomach [1]: 0.590 ± 0.242 μg equiv·g^−1 or mL | Concentration of the radioactivity, Submandibular lymph nodes [1]: 8.74 ± 1.22 μg equiv·g^−1 or mL | Concentration of the radioactivity, Testes [1]: 5.10 ± 2.17 μg equiv·g^−1 or mL | Concentration of the radioactivity, Thymus [1]: 1.15 ± 0.155 μg equiv·g^−1 or mL | Concentration of the radioactivity, Thyroid gland [1]: 8.03 ± 1.45 μg equiv·g^−1 or mL | Concentration of the radioactivity, Urinary bladder [1]: 0.967 ± 0.188 μg equiv·g^−1 or mL | Concentration of the radioactivity, Adrenals [2]: 8.45 ± 0.517 μg equiv·g^−1 or mL | Concentration of the radioactivity, Blood [2]: 80.9 ± 1.90 μg equiv·g^−1 or mL | Concentration of the radioactivity, Bone (femur) [2]: 1.95 ± 0.128 μg equiv·g^−1 or mL | Concentration of the radioactivity, Bone marrow [2]: 9.66 ± 0.367 μg equiv·g^−1 or mL | Concentration of the radioactivity, Brain [2]: 1.18 ± 0.030 μg equiv·g^−1 or mL | Concentration of the radioactivity, Eyes [2]: 0.346 ± 0.029 μg equiv·g^−1 or mL | Concentration of the radioactivity, Fat [2]: 0.861 ± 0.096 μg equiv·g^−1 or mL | Concentration of the radioactivity, Harderian glands [2]: 1.15 ± 0.357 μg equiv·g^−1 or mL | Concentration of the radioactivity, Heart [2]: 6.33 ± 0.512 μg equiv·g^−1 or mL | Concentration of the radioactivity, Intestine [2]: 1.47 ± 0.158 μg equiv·g^−1 or mL | Concentration of the radioactivity, Kidneys [2]: 11.2 ± 1.48 μg equiv·g^−1 or mL | Concentration of the radioactivity, Liver [2]: 7.03 ± 0.613 μg equiv·g^−1 or mL | Concentration of the radioactivity, Lungs [2]: 8.46 ± 0.824 μg equiv·g^−1 or mL | Concentration of the radioactivity, Pancreas [2]: 2.56 ± 0.036 μg equiv·g^−1 or mL | Concentration of the radioactivity, Pituitary [2]: 13.2 ± 1.08 μg equiv·g^−1 or mL | Concentration of the radioactivity, Plasma [2]: 131 ± 3.86 μg equiv·g^−1 or mL | Concentration of the radioactivity, Skeletal muscle [2]: 0.569 ± 0.100 μg equiv·g^−1 or mL | Concentration of the radioactivity, Skin [2]: 0.376 ± 0.103 μg equiv·g^−1 or mL | Concentration of the radioactivity, Spinal cord [2]: 0.909 ± 0.289 μg equiv·g^−1 or mL | Concentration of the radioactivity, Spleen [2]: 4.62 ± 0.185 μg equiv·g^−1 or mL | Concentration of the radioactivity, Stomach [2]: 1.32 ± 0.257 μg equiv·g^−1 or mL | Concentration of the radioactivity, Submandibular lymph nodes [2]: 2.57 ± 0.038 μg equiv·g^−1 or mL | Concentration of the radioactivity, Testes [2]: 1.14 ± 0.083 μg equiv·g^−1 or mL | Concentration of the radioactivity, Thymus [2]: 0.669 ± 0.115 μg equiv·g^−1 or mL | Concentration of the radioactivity, Thyroid gland [2]: 8.25 ± 1.42 μg equiv·g^−1 or mL | Concentration of the radioactivity, Urinary bladder [2]: 2.40 ± 1.32 μg equiv·g^−1 or mL | Concentration of the radioactivity, Adrenals [3]: 7.83 ± 1.38 μg equiv·g^−1 or mL | Concentration of the radioactivity, Blood [3]: 60.9 ± 4.36 μg equiv·g^−1 or mL | Concentration of the radioactivity, Bone (femur) [3]: 1.53 ± 0.555 μg equiv·g^−1 or mL | Concentration of the radioactivity, Bone marrow [3]: 8.66 ± 2.79 μg equiv·g^−1 or mL | Concentration of the radioactivity, Brain [3]: 0.939 ± 0.015 μg equiv·g^−1 or mL | Concentration of the radioactivity, Eyes [3]: 0.779 ± 0.168 μg equiv·g^−1 or mL | Concentration of the radioactivity, Fat [3]: 0.923 ± 0.308 μg equiv·g^−1 or mL | Concentration of the radioactivity, Harderian glands [3]: 1.91 ± 0.183 μg equiv·g^−1 or mL | Concentration of the radioactivity, Heart [3]: 7.71 ± 1.29 μg equiv·g^−1 or mL | Concentration of the radioactivity, Intestine [3]: 3.07 ± 0.233 μg equiv·g^−1 or mL | Concentration of the radioactivity, Kidneys [3]: 10.6 ± 1.16 μg equiv·g^−1 or mL | Concentration of the radioactivity, Liver [3]: 7.51 ± 0.438 μg equiv·g^−1 or mL | Concentration of the radioactivity, Lungs [3]: 8.37 ± 1.27 μg equiv·g^−1 or mL | Concentration of the radioactivity, Pancreas [3]: 3.83 ± 0.582 μg equiv·g^−1 or mL | Concentration of the radioactivity, Pituitary [3]: 13.9 ± 2.71 μg equiv·g^−1 or mL | Concentration of the radioactivity, Plasma [3]: 99.6 ± 2.94 μg equiv·g^−1 or mL | Concentration of the radioactivity, Skeletal muscle [3]: 0.447 ± 0.037 μg equiv·g^−1 or mL | Concentration of the radioactivity, Skin [3]: 1.41 ± 0.175 μg equiv·g^−1 or mL | Concentration of the radioactivity, Spinal cord [3]: 0.662 ± 0.070 μg equiv·g^−1 or mL | Concentration of the radioactivity, Spleen [3]: 5.51 ± 0.776 μg equiv·g^−1 or mL | Concentration of the radioactivity, Stomach [3]: 2.69 ± 0.013 μg equiv·g^−1 or mL | Concentration of the radioactivity, Submandibular lymph nodes [3]: 4.25 ± 0.140 μg equiv·g^−1 or mL | Concentration of the radioactivity, Testes [3]: 4.01 ± 0.254 μg equiv·g^−1 or mL | Concentration of the radioactivity, Thymus [3]: 1.02 ± 0.040 μg equiv·g^−1 or mL | Concentration of the radioactivity, Thyroid gland [3]: 10.1 ± 1.79 μg equiv·g^−1 or mL | Concentration of the radioactivity, Urinary bladder [3]: 3.53 ± 0.234 μg equiv·g^−1 or mL | Concentration of the radioactivity, Adrenals [4]: 10.0 ± 1.15 μg equiv·g^−1 or mL | Concentration of the radioactivity, Blood [4]: 39.7 ± 2.51 μg equiv·g^−1 or mL | Concentration of the radioactivity, Bone (femur) [4]: 1.16 ± 0.177 μg equiv·g^−1 or mL | Concentration of the radioactivity, Bone marrow [4]: 8.50 ± 1.23 μg equiv·g^−1 or mL | Concentration of the radioactivity, Brain [4]: 0.646 ± 0.050 μg equiv·g^−1 or mL | Concentration of the radioactivity, Eyes [4]: 0.806 ± 0.063 μg equiv·g^−1 or mL | Concentration of the radioactivity, Fat [4]: 1.65 ± 0.392 μg equiv·g^−1 or mL | Concentration of the radioactivity, Harderian glands [4]: 2.55 ± 0.105 μg equiv·g^−1 or mL | Concentration of the radioactivity, Heart [4]: 6.28 ± 0.256 μg equiv·g^−1 or mL | Concentration of the radioactivity, Intestine [4]: 3.10 ± 0.144 μg equiv·g^−1 or mL | Concentration of the radioactivity, Kidneys [4]: 8.75 ± 1.47 μg equiv·g^−1 or mL | Concentration of the radioactivity, Liver [4]: 9.26 ± 0.516 μg equiv·g^−1 or mL | Concentration of the radioactivity, Lungs [4]: 7.22 ± 0.464 μg equiv·g^−1 or mL | Concentration of the radioactivity, Pancreas [4]: 5.14 ± 0.582 μg equiv·g^−1 or mL | Concentration of the radioactivity, Pituitary [4]: 13.7 ± 2.02 μg equiv·g^−1 or mL | Concentration of the radioactivity, Plasma [4]: 64.1 ± 5.12 μg equiv·g^−1 or mL | Concentration of the radioactivity, Skeletal muscle [4]: 0.584 ± 0.044 μg equiv·g^−1 or mL | Concentration of the radioactivity, Skin [4]: 3.29 ± 0.308 μg equiv·g^−1 or mL | Concentration of the radioactivity, Spinal cord [4]: 0.442 ± 0.090 μg equiv·g^−1 or mL | Concentration of the radioactivity, Spleen [4]: 10.2 ± 1.04 μg equiv·g^−1 or mL | Concentration of the radioactivity, Stomach [4]: 3.01 ± 0.168 μg equiv·g^−1 or mL | Concentration of the radioactivity, Submandibular lymph nodes [4]: 5.72 ± 0.303 μg equiv·g^−1 or mL | Concentration of the radioactivity, Testes [4]: 4.15 ± 0.605 μg equiv·g^−1 or mL | Concentration of the radioactivity, Thymus [4]: 1.90 ± 0.201 μg equiv·g^−1 or mL | Concentration of the radioactivity, Thyroid gland [4]: 10.2 ± 1.10 μg equiv·g^−1 or mL | Concentration of the radioactivity, Urinary bladder [4]: 6.18 ± 0.260 μg equiv·g^−1 or mL | tissue to plasma ratios (after 24 h, in most tissues): > 1 | tissue to plasma ratios (through at least 24 h after dosing): < 1
